In publication PMC10917784 (Nature Communications, 2024) one finds Kd data, which are given here for one molecule.

Common to all, as to conditions: one partner purified
In assay [1] the target is T1, CD38 on tumor cell lines (Homo sapiens, UniProt P28907).
T1 construct: CD38 on the surface of CD38high (Daudi, Raji) and CD38low (NCI-H929, KMS-12-BM) cell lines; source: endogenous, on Daudi, Raji, NCI-H929 and KMS-12-BM cells
In words: flow cytometry on cells; Raji cells, increasing antibody concentrations, 4 °C, 30 min, labelled anti-human IgG secondary; Kd from fit of RFI.

In assay [2] the target is T1, CD38 on tumor cell lines. The assay can be described thus: flow cytometry on cells; Daudi cells, increasing antibody concentrations, 4 °C, 30 min, labelled anti-human IgG secondary; Kd from fit of RFI.
The target in assay [3] is T1, CD38 on tumor cell lines. In words: flow cytometry on cells; NCI-H929 cells, increasing antibody concentrations, 4 °C, 30 min, labelled anti-human IgG secondary; Kd from fit of RFI.
For assay [4], the target named is T1, CD38 on tumor cell lines. In words: flow cytometry on cells; KMS-12-BM cells, increasing antibody concentrations, 4 °C, 30 min, labelled anti-human IgG secondary; Kd from fit of RFI.

B1: daratumumab (antibody, V domains shown)
VH: EVQLLESGGGLVQPGGSLRLSCAVSGFTFNSFAMSWVRQAPGKGLEWVSAISGSGGGTYYADSVKGRFTISRDNSKNTLYLQMNSLRAEDTAVYFCAKDKILWFGEPVFDYWGQGTLVTVSS
VL: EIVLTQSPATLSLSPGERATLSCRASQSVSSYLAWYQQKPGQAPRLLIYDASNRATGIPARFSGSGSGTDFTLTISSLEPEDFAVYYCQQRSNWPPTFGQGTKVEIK
notes: whole antibody in the assay; the PDB entry holds only part of it; also called Darzalex; source: bought: Janssen Biotech Inc
B1: the equilibrium dissociation constant (Kd) is 0.33 nM with CD38 on tumor cell lines [1], 0.258 nM with CD38 on tumor cell lines [2], 0.506 nM with CD38 on tumor cell lines [3] and 0.138 nM in the assay with CD38 on tumor cell lines [4].
